Data: publication PMC5125937 (Molecules and Cells, 2016)
Numbering of substitutions follows the chain as printed. In names and notes the source's numbering stands.

T1: EcZapD E22R (residues 1-247) (E. coli, UniProt P36680 1-247, E22R)
T1 sequence: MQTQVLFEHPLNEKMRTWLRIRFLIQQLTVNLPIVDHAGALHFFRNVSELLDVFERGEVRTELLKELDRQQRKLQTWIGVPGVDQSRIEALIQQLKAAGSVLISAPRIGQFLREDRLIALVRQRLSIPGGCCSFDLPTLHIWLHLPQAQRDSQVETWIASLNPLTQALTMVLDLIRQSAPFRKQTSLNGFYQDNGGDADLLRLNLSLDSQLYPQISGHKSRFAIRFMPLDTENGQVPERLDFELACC

T2: EcZapD H140R (residues 1-247) (E. coli, UniProt P36680 1-247, H140R)
T2 sequence: T1 sequence with R22E, H140R

B1: EcZapD WT (residues 1-247) (natural protein)
chain: T1 sequence with R22E

Legend:
SEC-MALS = biological target: the molecule itself; experiment: SEC-MALS
[1] = biological target: B1; experiment: BLI
[2] = biological target: T1, EcZapD E22R (residues 1-247); experiment: BLI
[3] = biological target: T2, EcZapD H140R (residues 1-247); experiment: BLI

Kd [1] [µM]	Kd [2] [µM]	Kd [3] [µM]	Binder	stoichiometry N (SEC-MALS)
			B1	2
> 2000			KEPDYLDIPAFLR [GST-FtsZ_(367-379)]	
4.7 ± 0.5			KEPDYLDIPAFLRDQAD [GST-FtsZ_(367-383) K380D]	
4.4 ± 0.5	68 ± 2.2	16 ± 1	KEPDYLDIPAFLRKQAD [GST-FtsZ_(367-383)]	
